Patent publication US8491890

Target: Fas (CD95, APO-1) on mouse microglia (mouse) (UniProt P25446)
Experiment: cell-based or functional assay

UniProt P25446, sequence (P25446 22-327): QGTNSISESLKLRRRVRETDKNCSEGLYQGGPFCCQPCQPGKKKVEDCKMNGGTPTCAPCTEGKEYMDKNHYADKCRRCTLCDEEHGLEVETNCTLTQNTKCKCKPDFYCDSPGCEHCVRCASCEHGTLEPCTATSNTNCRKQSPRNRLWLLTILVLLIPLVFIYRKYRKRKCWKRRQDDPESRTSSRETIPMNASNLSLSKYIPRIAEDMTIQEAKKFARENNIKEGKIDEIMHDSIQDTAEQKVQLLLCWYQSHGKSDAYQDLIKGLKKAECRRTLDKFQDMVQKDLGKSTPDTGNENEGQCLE

decrease of CB expression in Teff-treated cultures on blocking of FasL interactions (flow cytometry): 4.8%
decrease of CB protein expression in Treg-treated microglia on neutralization of FasL (flow cytometry): 40.2%
Substance: Fas ligand (FasL) on mouse Treg and Teff (from UniProt P41047 1-279)
